Results published in PMC10541312 (The Journal of Experimental Medicine, 2023).
Residue numbers refer to the chain shown, from its start. Names may count otherwise.

Experiments:
Test in all cases: BLI; biotinylated CD123 ECD wt and variants captured on streptavidin biosensors; IL-3 as analyte, 500 to 7.8 nM in PBS pH7.4; association 300 s; steady-state analysis
Settings in all cases: both partners purified
[1] = biological target: T1, CD123 R84T ECD (amino acids 19–305), soluble protein (human, UniProt P26951 19-305, R84T, biotinylated (Biotinylation kit Type B) in the IL-3 BLI only)
T1 construct: human CD123 extracellular domain (ECD; amino acids 19–305); source: produced and purified by Icosagen
T1 sequence (looked up): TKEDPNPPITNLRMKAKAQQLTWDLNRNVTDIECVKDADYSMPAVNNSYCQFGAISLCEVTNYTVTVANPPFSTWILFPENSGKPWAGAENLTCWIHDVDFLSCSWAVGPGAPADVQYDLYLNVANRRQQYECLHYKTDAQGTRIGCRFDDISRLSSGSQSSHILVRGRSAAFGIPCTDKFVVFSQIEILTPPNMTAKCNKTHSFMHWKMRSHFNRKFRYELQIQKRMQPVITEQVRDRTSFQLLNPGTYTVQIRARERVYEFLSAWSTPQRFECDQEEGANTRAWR

[2] = biological target: T2, CD123 R84Q ECD (amino acids 19–305), soluble protein (human, UniProt P26951 19-305, R84Q, biotinylated (Biotinylation kit Type B) in the IL-3 BLI only)
T2 construct: human CD123 extracellular domain (ECD; amino acids 19–305); source: produced and purified by Icosagen
T2 sequence (looked up): T1 sequence (looked up) with T66Q

[3] = biological target: T3, CD123 S59R ECD (amino acids 19–305), soluble protein (human, UniProt P26951 19-305, S59R, biotinylated (Biotinylation kit Type B) in the IL-3 BLI only)
T3 construct: human CD123 extracellular domain (ECD; amino acids 19–305); source: produced and purified by Icosagen
T3 sequence (looked up): T1 sequence (looked up) with S41R, T66R

[4] = biological target: T4, CD123 E51A ECD (amino acids 19–305), soluble protein (human, UniProt P26951 19-305, E51A, biotinylated (Biotinylation kit Type B) in the IL-3 BLI only)
T4 construct: human CD123 extracellular domain (ECD; amino acids 19–305); source: produced and purified by Icosagen
T4 sequence (looked up): T1 sequence (looked up) with E33A, T66R

[5] = biological target: T5, CD123 wt ECD (amino acids 19–305), soluble protein (human, UniProt P26951 19-305, biotinylated (Biotinylation kit Type B) in the IL-3 BLI only)
T5 construct: human CD123 extracellular domain (ECD; amino acids 19–305); also called wt CD123; source: produced and purified by Icosagen
T5 sequence (looked up): T1 sequence (looked up) with T66R

[6] = biological target: T6, CD123 S59E ECD (amino acids 19–305), soluble protein (human, UniProt P26951 19-305, S59E, biotinylated (Biotinylation kit Type B) in the IL-3 BLI only)
T6 construct: human CD123 extracellular domain (ECD; amino acids 19–305); source: produced and purified by Icosagen
T6 sequence (looked up): T1 sequence (looked up) with S41E, T66R

[7] = biological target: T7, CD123 S59Y ECD (amino acids 19–305), soluble protein (human, UniProt P26951 19-305, S59Y, biotinylated (Biotinylation kit Type B) in the IL-3 BLI only)
T7 construct: human CD123 extracellular domain (ECD; amino acids 19–305); source: produced and purified by Icosagen
T7 sequence (looked up): T1 sequence (looked up) with S41Y, T66R

[8] = biological target: T8, CD123 S59F ECD (amino acids 19–305), soluble protein (human, UniProt P26951 19-305, S59F, biotinylated (Biotinylation kit Type B) in the IL-3 BLI only)
T8 construct: human CD123 extracellular domain (ECD; amino acids 19–305); source: produced and purified by Icosagen
T8 sequence (looked up): T1 sequence (looked up) with S41F, T66R

[9] = biological target: T9, CD123 E51Q ECD (amino acids 19–305), soluble protein (human, UniProt P26951 19-305, E51Q, biotinylated (Biotinylation kit Type B) in the IL-3 BLI only)
T9 construct: human CD123 extracellular domain (ECD; amino acids 19–305); source: produced and purified by Icosagen
T9 sequence (looked up): T1 sequence (looked up) with E33Q, T66R

[10] = biological target: T10, CD123 R84E ECD (amino acids 19–305), soluble protein (human, UniProt P26951 19-305, R84E, biotinylated (Biotinylation kit Type B) in the IL-3 BLI only)
T10 construct: human CD123 extracellular domain (ECD; amino acids 19–305); source: produced and purified by Icosagen
T10 sequence (looked up): T1 sequence (looked up) with T66E

[11] = biological target: T11, CD123 E51K ECD (amino acids 19–305), soluble protein (human, UniProt P26951 19-305, E51K, biotinylated (Biotinylation kit Type B) in the IL-3 BLI only)
T11 construct: human CD123 extracellular domain (ECD; amino acids 19–305); source: produced and purified by Icosagen
T11 sequence (looked up): T1 sequence (looked up) with E33K, T66R

[12] = biological target: T12, CD123 E51T ECD (amino acids 19–305), soluble protein (human, UniProt P26951 19-305, E51T, biotinylated (Biotinylation kit Type B) in the IL-3 BLI only)
T12 construct: human CD123 extracellular domain (ECD; amino acids 19–305); source: produced and purified by Icosagen
T12 sequence (looked up): T1 sequence (looked up) with E33T, T66R

[13] = biological target: T13, CD123 S59P ECD (amino acids 19–305), soluble protein (human, UniProt P26951 19-305, S59P, biotinylated (Biotinylation kit Type B) in the IL-3 BLI only)
T13 construct: human CD123 extracellular domain (ECD; amino acids 19–305); source: produced and purified by Icosagen
T13 sequence (looked up): T1 sequence (looked up) with S41P, T66R

Measured: binding result

B1: IL-3 (ligand, human, UniProt P08700 20-152, looked up)
chain: APMTQTTPLKTSWVNCSNMIDEIITHLKQPPLPLLDFNNLNGEDQDILMENNLRRPNLEAFNRAVKSLQNASAIESILKNLLPCLPLATAAPTRHPIHIKDGDWNEFRRKLTFYLKTLENAQAQQTTLSLAIF
notes: human interleukin-3, recombinant, Sino Biological PN 11858-H08H; also called interleukin-3; human IL-3; source: bought: Sino Biological (PN 11858-H08H)
binds: all assays above
